According to US20190284258:

Tested on: T1, Haemadipsa sylvestris antithrombotic peptide Sylvestin
T1 sequence: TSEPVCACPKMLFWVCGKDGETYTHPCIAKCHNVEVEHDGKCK

Row | Substance | enzyme kinetics, chromogenic substrate, OD 405 nm | enzyme kinetics, chromogenic substrate, OD 405 nm; sample 10 µM
1 | FXIIa | it can inhibit FXIIa and kallikrein | 
2 | FXa |  | had no inhibitory effect on thrombin, plasminogen FXa or the like
3 | kallikrein | it can inhibit FXIIa and kallikrein | 
4 | plasminogen |  | had no inhibitory effect on thrombin, plasminogen FXa or the like
5 | thrombin |  | had no inhibitory effect on thrombin, plasminogen FXa or the like
